T1: FcγRIIa H (FcγRIIa type H, His at position 131), extracellular domain with C-terminal His tag (human, UniProt P12318 34-217)
T1 construct: extracellular domain; also called FcgRIIa H; 2aH
T1 sequence (looked up): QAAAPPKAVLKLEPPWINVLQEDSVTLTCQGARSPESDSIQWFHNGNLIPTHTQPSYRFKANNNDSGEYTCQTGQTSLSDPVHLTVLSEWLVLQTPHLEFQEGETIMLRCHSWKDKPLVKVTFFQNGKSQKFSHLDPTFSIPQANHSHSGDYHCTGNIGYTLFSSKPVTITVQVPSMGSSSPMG

B1: GpH7-A5/GpH7-B3 variant G236_03V/GpL16-k0 (antibody, human IgG1, kappa)
heavy 1: not shown
heavy 2: not shown
light: DIVMTQSPLSLPVTPGEPASISCQASESLVHSNRNTYLHWYLQKPGQSPQLLIYKVSNRFSGVPDRFSGSGSGTDFTLKISRVEAEDVGVYYCSQNTHVPPTFGQGTKVEIERTVAAPSVFIFPPSDEQLKSGTASVVCLLNNFYPREAKVQWKVDNALQSGNSQESVTEQDSKDSTYSLSSTLTLSKADYEKHKVYACEVTHQGLSSPVTKSFNRGEC
notes: one H chain mutated; also called He Ab
B2: GpH7-A5/GpH7-B3 variant G236_07I/GpL16-k0 (antibody, human IgG1, kappa)
heavy 1: not shown
heavy 2: not shown
light: B1 light
notes: as for B1
B3: GpH7-A5/GpH7-B3 variant G236_10E/GpL16-k0 (antibody, human IgG1, kappa)
heavy 1: not shown
heavy 2: not shown
light: B1 light
notes: as for B1
B4: GpH7-A5/GpH7-B3 variant H268_09D/GpL16-k0 (antibody, human IgG1, kappa)
heavy 1: not shown
heavy 2: not shown
light: B1 light
notes: as for B1
B5: GpH7-A5/GpH7-B3 variant H268_10E/GpL16-k0 (antibody, human IgG1, kappa)
heavy 1: not shown
heavy 2: not shown
light: B1 light
notes: as for B1
B6: GpH7-A5/GpH7-B3 variant H268_13S/GpL16-k0 (antibody, human IgG1, kappa)
heavy 1: not shown
heavy 2: not shown
light: B1 light
notes: as for B1
B7: GpH7-A5/GpH7-B3 variant H268_18N/GpL16-k0 (antibody, human IgG1, kappa)
heavy 1: not shown
heavy 2: not shown
light: B1 light
notes: as for B1
B8: GpH7-A5/GpH7-B3 variant I332_03V/GpL16-k0 (antibody, human IgG1, kappa)
heavy 1: not shown
heavy 2: not shown
light: B1 light
notes: as for B1
B9: GpH7-A5/GpH7-B3 variant I332_04F/GpL16-k0 (antibody, human IgG1, kappa)
heavy 1: not shown
heavy 2: not shown
light: B1 light
notes: as for B1
B10: GpH7-A5/GpH7-B3 variant I332_06M/GpL16-k0 (antibody, human IgG1, kappa)
heavy 1: not shown
heavy 2: not shown
light: B1 light
notes: as for B1
B11: GpH7-A5/GpH7-B3 variant I332_09D/GpL16-k0 (antibody, human IgG1, kappa)
heavy 1: not shown
heavy 2: not shown
light: B1 light
notes: as for B1
B12: GpH7-A5/GpH7-B3 variant I332_10E/GpL16-k0 (antibody, human IgG1, kappa)
heavy 1: not shown
heavy 2: not shown
light: B1 light
notes: as for B1
B13: GpH7-A5/GpH7-B3 variant I332_13S/GpL16-k0 (antibody, human IgG1, kappa)
heavy 1: not shown
heavy 2: not shown
light: B1 light
notes: as for B1
B14: GpH7-A5/GpH7-B3 variant I332_14T/GpL16-k0 (antibody, human IgG1, kappa)
heavy 1: not shown
heavy 2: not shown
light: B1 light
notes: as for B1
B15: GpH7-A5/GpH7-B3 variant I332_15Y/GpL16-k0 (antibody, human IgG1, kappa)
heavy 1: not shown
heavy 2: not shown
light: B1 light
notes: as for B1
B16: GpH7-A5/GpH7-B3 variant I332_16H/GpL16-k0 (antibody, human IgG1, kappa)
heavy 1: not shown
heavy 2: not shown
light: B1 light
notes: as for B1
B17: GpH7-A5/GpH7-B3 variant I332_18N/GpL16-k0 (antibody, human IgG1, kappa)
heavy 1: not shown
heavy 2: not shown
light: B1 light
notes: as for B1
B18: GpH7-A5/GpH7-B3 variant I332_19Q/GpL16-k0 (antibody, human IgG1, kappa)
heavy 1: not shown
heavy 2: not shown
light: B1 light
notes: as for B1
B19: GpH7-A5/GpH7-B3 variant I336_06M/GpL16-k0 (antibody, human IgG1, kappa)
heavy 1: not shown
heavy 2: not shown
light: B1 light
notes: as for B1
B20: GpH7-A5/GpH7-B3 variant I336_08L/GpL16-k0 (antibody, human IgG1, kappa)
heavy 1: not shown
heavy 2: not shown
light: B1 light
notes: as for B1
B21: GpH7-A5/GpH7-B3 variant K326_06M/GpL16-k0 (antibody, human IgG1, kappa)
heavy 1: not shown
heavy 2: not shown
light: B1 light
notes: as for B1
B22: GpH7-A5/GpH7-B3 variant K326_09D/GpL16-k0 (antibody, human IgG1, kappa)
heavy 1: not shown
heavy 2: not shown
light: B1 light
notes: as for B1
B23: GpH7-A5/GpH7-B3 variant K326_10E/GpL16-k0 (antibody, human IgG1, kappa)
heavy 1: not shown
heavy 2: not shown
light: B1 light
notes: as for B1
B24: GpH7-A5/GpH7-B3 variant K326_14T/GpL16-k0 (antibody, human IgG1, kappa)
heavy 1: not shown
heavy 2: not shown
light: B1 light
notes: as for B1
B25: GpH7-A5/GpH7-B3 variant K326_19Q/GpL16-k0 (antibody, human IgG1, kappa)
heavy 1: not shown
heavy 2: not shown
light: B1 light
notes: as for B1
B26: GpH7-A5/GpH7-B3 variant K334_03V/GpL16-k0 (antibody, human IgG1, kappa)
heavy 1: not shown
heavy 2: not shown
light: B1 light
notes: as for B1
B27: GpH7-A5/GpH7-B3 variant K334_04F/GpL16-k0 (antibody, human IgG1, kappa)
heavy 1: not shown
heavy 2: not shown
light: B1 light
notes: as for B1
B28: GpH7-A5/GpH7-B3 variant K334_07[ (read as K334_07I)/GpL16-k0 (antibody, human IgG1, kappa)
heavy 1: not shown
heavy 2: not shown
light: B1 light
notes: as for B1
B29: GpH7-A5/GpH7-B3 variant K334_08L/GpL16-k0 (antibody, human IgG1, kappa)
heavy 1: not shown
heavy 2: not shown
light: B1 light
notes: as for B1
B30: GpH7-A5/GpH7-B3 variant K334_14T/GpL16-k0 (antibody, human IgG1, kappa)
heavy 1: not shown
heavy 2: not shown
light: B1 light
notes: as for B1
B31: GpH7-A5/GpH7-B3 variant K334_15Y/GpL16-k0 (antibody, human IgG1, kappa)
heavy 1: not shown
heavy 2: not shown
light: B1 light
notes: as for B1
B32: GpH7-A5/GpH7-B3 variant K334_16H/GpL16-k0 (antibody, human IgG1, kappa)
heavy 1: not shown
heavy 2: not shown
light: B1 light
notes: as for B1
B33: GpH7-A5/GpH7-B3 variant L235_20W/GpL16-k0 (antibody, human IgG1, kappa)
heavy 1: not shown
heavy 2: not shown
light: B1 light
notes: as for B1
B34: GpH7-A5/GpH7-B3 variant L328_02A/GpL16-k0 (antibody, human IgG1, kappa)
heavy 1: not shown
heavy 2: not shown
light: B1 light
notes: as for B1
B35: GpH7-A5/GpH7-B3 variant L328_06M/GpL16-k0 (antibody, human IgG1, kappa)
heavy 1: not shown
heavy 2: not shown
light: B1 light
notes: as for B1
B36: GpH7-A5/GpH7-B3 variant L328_13S/GpL16-k0 (antibody, human IgG1, kappa)
heavy 1: not shown
heavy 2: not shown
light: B1 light
notes: as for B1
B37: GpH7-A5/GpH7-B3 variant L328_14T/GpL16-k0 (antibody, human IgG1, kappa)
heavy 1: not shown
heavy 2: not shown
light: B1 light
notes: as for B1
B38: GpH7-A5/GpH7-B3 variant P271_01G/GpL16-k0 (antibody, human IgG1, kappa)
heavy 1: not shown
heavy 2: not shown
light: B1 light
notes: as for B1
B39: GpH7-A5/GpH7-B3 variant Q295_05P/GpL16-k0 (antibody, human IgG1, kappa)
heavy 1: not shown
heavy 2: not shown
light: B1 light
notes: as for B1
B40: GpH7-A5/GpH7-B3 variant Q295_07I/GpL16-k0 (antibody, human IgG1, kappa)
heavy 1: not shown
heavy 2: not shown
light: B1 light
notes: as for B1
B41: GpH7-A5/GpH7-B3 variant S239_09D/GpL16-k0 (antibody, human IgG1, kappa)
heavy 1: not shown
heavy 2: not shown
light: B1 light
notes: as for B1
B42: GpH7-A5/GpH7-B3 variant S267_02A/GpL16-k0 (antibody, human IgG1, kappa)
heavy 1: not shown
heavy 2: not shown
light: B1 light
notes: as for B1
B43: GpH7-A5/GpH7-B3 variant S324_02A/GpL16-k0 (antibody, human IgG1, kappa)
heavy 1: not shown
heavy 2: not shown
light: B1 light
notes: as for B1
B44: GpH7-A5/GpH7-B3 variant S324_06M/GpL16-k0 (antibody, human IgG1, kappa)
heavy 1: not shown
heavy 2: not shown
light: B1 light
notes: as for B1

These binders were tested against T1, FcγRIIa H (FcγRIIa type H, His at …) (assay: SPR Biacore, relative binding, GpH7-A5/GpH7-B3/GpL16-k0 (HeCon Ab)=100).
Description: Analysis of interaction between objective antibody and the FcγR was carried out using Biacore T100 (GE Healthcare). HBS-EP+ (GE Healthcare) was used as the running buffer, and the measurement temperature was set to 25° C. Chips produced by immobilizing the antigen peptide by the amine coupling method to a Series S Sencor Chip CM5 (GE Healthcare), or alternatively, chips produced by allowing preliminarily biotinylated antigen peptides to interact with and immobilize onto a Series S Sensor Chip SA (certified) (GE Healthcare) were used. Antibodies of interest were captured onto an antigen peptide-immobilized chip, and allowed to interact to each FcγR diluted with running buffer. To regenerate and repeatedly use the chip, the antibodies captured on the chip were washed off by reacting 10 mM glycine-HCl, pH 1.5.

Question: How did the He/Con_2aH turn out when B1 was run?
Answer: 119 % of control

Question: Which He/Con_2aH does the source give for B2 here?
Answer: 115 % of control

Question: B3 was tested. Which He/Con_2aH did it give?
Answer: 111 % of control

Question: With B4 as the binder, how does the He/Con_2aH read?
Answer: 133 % of control

Question: How did the He/Con_2aH turn out when B5 was run?
Answer: 124 % of control

Question: For B6, which He/Con_2aH is on record?
Answer: 112 % of control

Question: B7 was tested. Which He/Con_2aH did it give?
Answer: 112 % of control

Question: Which He/Con_2aH does the source give for B8 here?
Answer: 105 % of control

Question: B9 was tested. Which He/Con_2aH did it give?
Answer: 104 % of control

Question: Which He/Con_2aH does the source give for B10 here?
Answer: 110 % of control

Question: With B11 as the binder, how does the He/Con_2aH read?
Answer: 118 % of control

Question: For B12, which He/Con_2aH is on record?
Answer: 108 % of control

Question: B13 was tested. Which He/Con_2aH did it give?
Answer: 110 % of control

Question: B14 was tested. Which He/Con_2aH did it give?
Answer: 115 % of control

Question: Which He/Con_2aH does the source give for B15 here?
Answer: 115 % of control

Question: Which He/Con_2aH does the source give for B16 here?
Answer: 109 % of control

Question: With B17 as the binder, how does the He/Con_2aH read?
Answer: 110 % of control

Question: For B18, which He/Con_2aH is on record?
Answer: 108 % of control

Question: For B19, which He/Con_2aH is on record?
Answer: 106 % of control

Question: Which He/Con_2aH does the source give for B20 here?
Answer: 106 % of control

Question: Which He/Con_2aH does the source give for B21 here?
Answer: 103 % of control

Question: B22 was tested. Which He/Con_2aH did it give?
Answer: 110 % of control

Question: For B23, which He/Con_2aH is on record?
Answer: 102 % of control

Question: B24 was tested. Which He/Con_2aH did it give?
Answer: 114 % of control

Question: How did the He/Con_2aH turn out when B25 was run?
Answer: 101 % of control

Question: B26 was tested. Which He/Con_2aH did it give?
Answer: 109 % of control

Question: B27 was tested. Which He/Con_2aH did it give?
Answer: 106 % of control

Question: How did the He/Con_2aH turn out when B28 was run?
Answer: 110 % of control

Question: B29 was tested. Which He/Con_2aH did it give?
Answer: 104 % of control

Question: For B30, which He/Con_2aH is on record?
Answer: 103 % of control

Question: With B31 as the binder, how does the He/Con_2aH read?
Answer: 106 % of control

Question: B32 was tested. Which He/Con_2aH did it give?
Answer: 104 % of control

Question: With B33 as the binder, how does the He/Con_2aH read?
Answer: 118 % of control

Question: For B34, which He/Con_2aH is on record?
Answer: 130 % of control

Question: For B35, which He/Con_2aH is on record?
Answer: 104 % of control

Question: With B36 as the binder, how does the He/Con_2aH read?
Answer: 123 % of control

Question: For B37, which He/Con_2aH is on record?
Answer: 116 % of control

Question: B38 was tested. Which He/Con_2aH did it give?
Answer: 107 % of control

Question: With B39 as the binder, how does the He/Con_2aH read?
Answer: 103 % of control

Question: How did the He/Con_2aH turn out when B40 was run?
Answer: 102 % of control

Question: How did the He/Con_2aH turn out when B41 was run?
Answer: 114 % of control

Question: For B42, which He/Con_2aH is on record?
Answer: 120 % of control

Question: How did the He/Con_2aH turn out when B43 was run?
Answer: 102 % of control

Question: How did the He/Con_2aH turn out when B44 was run?
Answer: 117 % of control

From patent US20150344570A1 (published 2015)
